# Numbering of substitutions follows the chain as printed.
# T1: Cdc1-E2 (Schizosaccharomyces pombe, UniProt P87324 1-26)
# T1 construct: Cdc1, S. pombe, truncated after amino acid 26 by a 16 nt insertion; residues coded by the 16 nt insertion before the stop codon (printed as GlyValProLysTer); source: yeast two-hybrid fusion, in S. cerevisiae CTY10-5d
# T1 chain: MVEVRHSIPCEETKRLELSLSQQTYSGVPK
# T2: Cdc1-A1 (Schizosaccharomyces pombe, UniProt P87324 1-462, Pro292Ala)
# T2 construct: Cdc1, S. pombe, point mutant; source: yeast two-hybrid fusion, in S. cerevisiae CTY10-5d
# T2 sequence (looked up): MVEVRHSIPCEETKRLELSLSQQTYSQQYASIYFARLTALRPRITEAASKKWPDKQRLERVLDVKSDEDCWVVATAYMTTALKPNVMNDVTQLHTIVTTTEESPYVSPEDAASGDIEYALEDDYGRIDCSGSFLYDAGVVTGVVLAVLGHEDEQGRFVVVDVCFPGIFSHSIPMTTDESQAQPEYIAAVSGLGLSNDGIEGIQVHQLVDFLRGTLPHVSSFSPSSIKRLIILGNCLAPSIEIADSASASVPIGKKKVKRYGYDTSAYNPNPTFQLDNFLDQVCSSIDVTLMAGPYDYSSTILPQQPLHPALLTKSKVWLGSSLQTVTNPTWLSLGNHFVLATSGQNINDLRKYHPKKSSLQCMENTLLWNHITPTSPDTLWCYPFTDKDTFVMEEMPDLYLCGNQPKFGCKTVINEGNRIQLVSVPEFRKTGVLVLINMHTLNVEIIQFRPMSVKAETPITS
# T3: Cdc1-E1 (Schizosaccharomyces pombe, UniProt P87324 1-462, Ser-GlyValProGlnSer-Asp)
# T3 construct: Cdc1, S. pombe, with a pentapeptide inserted after residue 66; source: yeast two-hybrid fusion, in S. cerevisiae CTY10-5d
# T3 sequence (looked up): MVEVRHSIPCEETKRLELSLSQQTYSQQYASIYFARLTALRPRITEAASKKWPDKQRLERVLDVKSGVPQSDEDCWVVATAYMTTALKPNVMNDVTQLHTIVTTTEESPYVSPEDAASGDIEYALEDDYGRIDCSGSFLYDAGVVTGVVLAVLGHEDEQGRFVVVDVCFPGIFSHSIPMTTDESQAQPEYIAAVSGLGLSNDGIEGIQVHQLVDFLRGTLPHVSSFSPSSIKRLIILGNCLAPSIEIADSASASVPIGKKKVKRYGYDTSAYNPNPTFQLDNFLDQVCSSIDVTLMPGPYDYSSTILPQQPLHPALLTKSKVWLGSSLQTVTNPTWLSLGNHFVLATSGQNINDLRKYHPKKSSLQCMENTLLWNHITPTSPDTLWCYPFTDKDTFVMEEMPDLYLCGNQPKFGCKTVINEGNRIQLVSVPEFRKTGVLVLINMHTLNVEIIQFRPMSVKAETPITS
# T4: Cdc1-J6 (Schizosaccharomyces pombe, UniProt P87324 1-462, Tyr-GlyValProHisTyr-Gly)
# T4 construct: Cdc1, S. pombe, with a pentapeptide inserted after residue 124; source: yeast two-hybrid fusion, in S. cerevisiae CTY10-5d
# T4 sequence (looked up): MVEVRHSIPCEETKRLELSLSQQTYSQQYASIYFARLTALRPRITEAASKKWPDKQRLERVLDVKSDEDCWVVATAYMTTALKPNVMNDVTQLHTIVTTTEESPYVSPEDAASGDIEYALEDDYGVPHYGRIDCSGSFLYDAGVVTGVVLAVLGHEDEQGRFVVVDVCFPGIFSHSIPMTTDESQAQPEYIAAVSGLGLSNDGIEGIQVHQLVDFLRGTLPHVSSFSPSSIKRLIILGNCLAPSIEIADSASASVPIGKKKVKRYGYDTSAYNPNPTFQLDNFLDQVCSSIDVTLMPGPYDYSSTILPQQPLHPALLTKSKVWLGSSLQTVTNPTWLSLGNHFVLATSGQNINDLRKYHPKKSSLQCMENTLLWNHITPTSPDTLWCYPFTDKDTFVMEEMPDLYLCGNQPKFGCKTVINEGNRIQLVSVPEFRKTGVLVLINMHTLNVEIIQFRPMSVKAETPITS
# T5: Cdc1-A2 (Schizosaccharomyces pombe, UniProt P87324 1-462, Gly293Ala)
# T5 construct: Cdc1, S. pombe, point mutant; source: yeast two-hybrid fusion, in S. cerevisiae CTY10-5d
# T5 sequence (looked up): T2 sequence (looked up) with A292P, G293A
# B1: Cdc27 (fission yeast DNA polymerase delta C-subunit) (natural protein, Schizosaccharomyces pombe, UniProt P30261 1-372, looked up)
# chain: MEEWRNFLDIKVINESSLVTVDNLSLQLDISSEKAQEYLNMFYQGNDFLYPIYLIHGQPIDDEINLEIDEESQPISNFPVLQYILCDKSSLQEKQSRLKSGYKTVIFALSSAPLSDFDELLPAVYEIREKDVLYKKEDADKYGFIFNENSVPRVLKKAPSTHSPQLSVPSKTSTIDKTDTRSTEKTKGKDIFSNARNQKGNSSRKNKKAPLENHKEKEPLLPKEEKLSEQAKRERDDLKNIMQLEDESVSTTSVHDSEDDNLDSNNFQLEIGTEAKSAAPDEPQEIIKSVSGGKRRGKRKVKKYATTKDEEGFLVTKEEEVWESFSEDENISTGTSNVVRNKPTTVNIATKKKNTAQSKPQQKSIMSFFGKK
# notes: DNA polymerase delta C-subunit Cdc27, S. pombe; prey plasmid pGAD2F-Cdc27; also called pGAD2F-Cdc27; source: yeast two-hybrid fusion, in S. cerevisiae CTY10-5d
# Columns and labels:
# Test in all cases: two-hybrid; LexA-Cdc1 bait (pBTM116 or pBTM116BN) with Gal4 activation domain-Cdc27 prey (pGAD2F-Cdc27) in S. cerevisiae CTY10-5d; ONPG liquid culture beta-galactosidase assay, mean of triplicates, as percent of wild-type Cdc1
# Conditions in all cases: partners not purified
# Cdc1-E2 = molecular target: T1, Cdc1-E2
# Cdc1-A1 = molecular target: T2, Cdc1-A1
# Cdc1-E1 = molecular target: T3, Cdc1-E1
# Cdc1-J6 = molecular target: T4, Cdc1-J6
# Cdc1-A2 = molecular target: T5, Cdc1-A2
binder,measurement,setting,value
B1,"two-hybrid beta-galactosidase activity, % of wild-type Cdc1",Cdc1-E2,< 1%
same,"two-hybrid beta-galactosidase activity, % of wild-type Cdc1",Cdc1-A1,44%
same,"two-hybrid beta-galactosidase activity, % of wild-type Cdc1",Cdc1-E1,1%
same,"two-hybrid beta-galactosidase activity, % of wild-type Cdc1",Cdc1-J6,< 1%
same,"two-hybrid beta-galactosidase activity, % of wild-type Cdc1",Cdc1-A2,19%

# — paper PMC2734569, “Functional mapping of the fission yeast DNA polymerase δ B-subunit Cdc1 by site-directed and random pentapeptide insertion mutagenesis” (BMC Molecular Biology, 2009)
